From patent US20220332804A1 (CSL INNOVATION, published 2022) come the findings set out here.

Assay in all cases: SPR, antibody captured, C2 as analyte;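 also: biacore at 37 °C, anti-C2 mAbs held by immobilised goat anti-human IgG, C2 alanine or serine mutants injected, double-referenced sensorgrams fitted to a 1:1 kinetic or steady-state model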
The target in one assay is T1, human C2 E686A (human, UniProt P06681 21-752).
T1 sequence: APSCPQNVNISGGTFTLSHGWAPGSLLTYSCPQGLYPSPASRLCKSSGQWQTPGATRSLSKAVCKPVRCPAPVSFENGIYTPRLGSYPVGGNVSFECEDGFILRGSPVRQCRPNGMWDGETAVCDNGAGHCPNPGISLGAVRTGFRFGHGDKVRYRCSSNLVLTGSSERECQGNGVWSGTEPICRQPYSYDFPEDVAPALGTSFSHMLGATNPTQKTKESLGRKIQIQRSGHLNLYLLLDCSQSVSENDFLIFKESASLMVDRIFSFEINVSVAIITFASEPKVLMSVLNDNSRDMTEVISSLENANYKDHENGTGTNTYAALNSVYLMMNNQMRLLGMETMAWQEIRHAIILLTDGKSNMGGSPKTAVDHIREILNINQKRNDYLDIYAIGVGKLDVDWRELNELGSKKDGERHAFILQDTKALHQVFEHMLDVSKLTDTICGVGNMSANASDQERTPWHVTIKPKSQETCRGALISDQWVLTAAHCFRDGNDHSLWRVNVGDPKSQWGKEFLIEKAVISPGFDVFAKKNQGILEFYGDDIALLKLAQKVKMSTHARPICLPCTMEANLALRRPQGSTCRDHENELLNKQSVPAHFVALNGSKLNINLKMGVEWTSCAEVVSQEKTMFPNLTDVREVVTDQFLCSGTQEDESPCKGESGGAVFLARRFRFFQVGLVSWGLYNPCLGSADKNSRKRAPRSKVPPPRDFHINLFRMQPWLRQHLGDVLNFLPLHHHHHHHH

A further assay deals with T2, human C2 G432A (human, UniProt P06681 21-752).
T2 sequence: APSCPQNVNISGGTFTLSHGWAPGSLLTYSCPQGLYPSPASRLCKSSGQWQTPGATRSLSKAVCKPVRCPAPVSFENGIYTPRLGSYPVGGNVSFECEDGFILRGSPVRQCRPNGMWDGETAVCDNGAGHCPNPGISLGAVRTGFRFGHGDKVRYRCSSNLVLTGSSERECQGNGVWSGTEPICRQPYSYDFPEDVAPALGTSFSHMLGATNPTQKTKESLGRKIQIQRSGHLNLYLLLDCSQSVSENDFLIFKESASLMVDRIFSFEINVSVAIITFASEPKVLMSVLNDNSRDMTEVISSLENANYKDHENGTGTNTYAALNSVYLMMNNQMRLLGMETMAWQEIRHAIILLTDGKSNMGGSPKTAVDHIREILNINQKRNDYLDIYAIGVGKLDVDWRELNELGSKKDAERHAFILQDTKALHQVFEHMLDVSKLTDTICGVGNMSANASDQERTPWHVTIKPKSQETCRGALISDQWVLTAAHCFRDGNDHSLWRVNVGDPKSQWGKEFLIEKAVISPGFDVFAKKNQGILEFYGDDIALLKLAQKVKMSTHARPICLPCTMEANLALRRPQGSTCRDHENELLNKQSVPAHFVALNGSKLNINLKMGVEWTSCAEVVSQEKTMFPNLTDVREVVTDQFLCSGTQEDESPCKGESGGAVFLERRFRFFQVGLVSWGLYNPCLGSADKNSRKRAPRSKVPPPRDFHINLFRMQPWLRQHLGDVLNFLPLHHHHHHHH

For another assay, the target named is T3, human C2 D282A (human, UniProt P06681 21-752).
T3 sequence: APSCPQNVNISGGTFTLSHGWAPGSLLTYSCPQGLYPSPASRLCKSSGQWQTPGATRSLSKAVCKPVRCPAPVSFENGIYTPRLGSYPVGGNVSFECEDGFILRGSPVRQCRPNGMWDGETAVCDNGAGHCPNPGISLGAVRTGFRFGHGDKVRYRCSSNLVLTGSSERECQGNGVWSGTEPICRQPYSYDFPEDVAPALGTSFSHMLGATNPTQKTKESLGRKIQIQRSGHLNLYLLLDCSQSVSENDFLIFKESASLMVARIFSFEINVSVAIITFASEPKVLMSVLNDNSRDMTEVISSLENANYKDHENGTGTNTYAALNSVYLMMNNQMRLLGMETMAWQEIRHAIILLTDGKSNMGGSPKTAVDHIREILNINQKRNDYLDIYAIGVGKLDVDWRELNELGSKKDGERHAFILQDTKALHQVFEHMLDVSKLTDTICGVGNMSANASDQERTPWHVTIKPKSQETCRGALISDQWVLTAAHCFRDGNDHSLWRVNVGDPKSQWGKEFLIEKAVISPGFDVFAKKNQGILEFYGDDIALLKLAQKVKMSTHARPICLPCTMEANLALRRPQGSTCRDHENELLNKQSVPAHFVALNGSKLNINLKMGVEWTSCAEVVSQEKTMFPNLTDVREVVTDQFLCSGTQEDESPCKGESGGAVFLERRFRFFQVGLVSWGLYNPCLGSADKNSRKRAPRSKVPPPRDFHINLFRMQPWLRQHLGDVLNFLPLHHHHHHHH

For a further assay, the target named is T4, human C2 K430A (human, UniProt P06681 21-752).
T4 sequence: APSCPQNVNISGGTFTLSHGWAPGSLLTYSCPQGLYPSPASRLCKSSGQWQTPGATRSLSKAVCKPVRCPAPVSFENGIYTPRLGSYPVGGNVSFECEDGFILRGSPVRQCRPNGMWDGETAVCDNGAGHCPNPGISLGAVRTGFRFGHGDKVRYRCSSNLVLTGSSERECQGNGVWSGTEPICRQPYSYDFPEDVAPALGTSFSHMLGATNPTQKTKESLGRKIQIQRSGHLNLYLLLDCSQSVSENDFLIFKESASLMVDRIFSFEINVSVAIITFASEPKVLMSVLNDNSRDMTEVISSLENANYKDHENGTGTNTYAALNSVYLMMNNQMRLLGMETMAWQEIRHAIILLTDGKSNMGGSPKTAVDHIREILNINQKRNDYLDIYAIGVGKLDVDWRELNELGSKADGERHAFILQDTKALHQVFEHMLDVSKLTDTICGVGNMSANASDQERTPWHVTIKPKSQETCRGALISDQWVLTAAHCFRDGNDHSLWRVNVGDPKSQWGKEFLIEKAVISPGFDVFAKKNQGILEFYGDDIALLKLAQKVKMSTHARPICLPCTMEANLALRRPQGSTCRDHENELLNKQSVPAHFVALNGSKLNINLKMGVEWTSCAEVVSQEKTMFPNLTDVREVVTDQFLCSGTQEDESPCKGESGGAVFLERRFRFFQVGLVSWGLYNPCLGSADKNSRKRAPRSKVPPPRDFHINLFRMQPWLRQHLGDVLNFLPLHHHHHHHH

Method for human C2 D282A: (§1) Surface plasmon resonance (SPR, Biacore) was used for all binding affinity analyses. In brief, goat anti-human IgG was directly immobilised onto the carboxymethyl dextran surface of CM5 sensorchips to approximately 12,000 RU using standard NHS/EDC chemistry at pH 5. The immobilised antibody surface was pre-conditioned with ten injections of polyclonal human IgG (Privigen 60 s) prepared at 1 μg/mL. Ligands (anti-C2 mAbs) were captured at the beginning of each cycle as described below. An adjacent spot or flow cell in which only Polyclonal IgG was capture was used as a reference surface. The goat anti-human IgG Fc antibody surface was regenerate in 100 mM H3PO4, injected for 45 seconds at the end of each cycle. Experiments were performed at 37° C. and the flow rate of each experiment was kept constant at 30 μL/min.
(§2) Sensogram data was double-referenced against a reference anti-IgG surface (i.e. minus anti-C2 mAb) and blank buffer injections obtained within each experiment. The binding data was fit to 1:1 (kinetic or steady-state) model using local Rmax and null refraction index (RI=0) when appropriate. Buffers and solutions were filtered (0.22 μm) prior to use.
Method for human C2 E686A: as §1, §2
Method for human C2 G432A: as §1, §2
Method for human C2 K430A: as §1, §2

B1: RF16-242 (antibody, human IgG4 S228P, lambda, V domains shown)
VH: EVQLLQSGAEVKKPGESLKISCKGSGYSFTSYWIGWVRQMPGKGLEWMGIIYPGDSDTRYSPSFQGQVTISADKSISTAYLQWSSLKASDTAMYYCARRGHYGDYFDYWGQGTLVTVSS
VL: SYELTQPPSVSVSPGQTARITCSGDALPKKYAYWYHQKSGQAPVLVIYEDRRRPSEIPERFSGSSSGTMATLTITGAQVEDEGVYFCYSRDRAGNQRVFGGGTQLTVLG
notes: pH-dependent anti-C2 antibody from a phage display library
In the case of B1, the Kd (commonly the free concentration of one partner at which half of the binding sites on the other are occupied at equilibrium, for simple one-to-one binding) in the assay with human C2 E686A turned out to be 32.6 nM; with human C2 G432A it was 8.8 nM; in the assay with human C2 D282A, 8 nM; with human C2 K430A, 91 nM.
